These results are taken from a protein production outcome set (Wang et al. 2014).

A short description of the data set: label from the status in PepcDB records.
For “MVQEEASCELAPREKKLSIRGAIVKLGNPGFPDASARSLPLNLERLRPGGGGCPQSGSQTLWCSSSLAECSHAEVTSSEGSPRTLGLRGESRDFPVISREGASKAGGGRSGRGQRLPRGSPAGLAGLWLLLLQIARLMARQRTVAGIGPGALLALRALLVAAHPQCLDFRPPFRPPQPLSFCAQYSAFGCCTAEQDAALARRFRALETRMDAGVWATCAGYALDLLCQECSPYAAHLYDAEDPATPLRTVPGLCEDYCLDMWQTCRGLFRHLSPDRELWALESNRAKLCRYLSLDDTDYCFPSLLVNENLNSNLGRVVADAKGCLQLCLEEVANGLRNPVAMVHAGDGSHRFFVAEQVGLVWTYLPDRSRLEKPFLNVSQAVLTSPWEGDERGFLGLAFHPRFPHPSKLYVYYSVGVGFREWIRISEFRISEDDENTVDHGSERIILEIEEPASNHNGGQLLFGDDGFLYIFTGDGGMAGDPFGKFGNAQNKSALLGKVLRIDVDRKERGLPYGIPLDNPFVDDPEARPEVYALGVRNMWRCSFDRGDPVSGTHRGRLFCGDVGQNKYEEVDLVERGRNYGWRAREGFECYDRKLCANASLDDVLPIFAYPHKLGKSVTGGYVYRGCEYPNLNGLYIFGDFMSGRLMSLRENPESGQWKYSEVCMGRGQTCAFPGLINNYYPYIISFAEDEAGELYFMSTGVPSATAARGVIYKVTDPSRRAPPGKCKIRPAQVKVKSHLIPFVPKEKFIRTSESTPRPTARAPTKAPRRRRPTAAPPAPTLRPTKPARPTRRPGARKGGGRRRGRPGTAVPEPQNGSVRLVRPSGLSPGRGRVEVFIGGRWGTVCDDGWDIKAAAVVCRQLGFAHAVRAAKRAEFGEGRALRILLDDVRCAGSERNLLECAHAGVGTHNCKHEEDAGVECSHEDPDL”, the protein production entry is “failed”.
For “MSPIHVRAHPGDVAERVLLPGDPGRAEWIAKTFLQNPRRYNDHRGLWGYTGLYKGVPVSVQTTGMGTPSAAIVVEELVRLGARVLVRVGTAGAASSDLAPGELIVAQGAVPLDGTTRQYLEGRPYAPVPDPEVFRALWRRAEALGYPHRVGLVASEDAFYATTPEEARAWARYGVLAFEMEASALFLLGRMRGVRTGAILAVSNRIGDPELAPPEVLQEGVRRMVEVALEAVLEV” the value was “not failed”.
For “MSLKRFDLIIRSSTVVTETTTYRADVAIRNGIVSAITEPGSISSDDGPAIDGTGLHLFPGMVDVHVHFNEPGRTEWEGFASGSKSLAAGGVTTYFDMPLNSNPPTITREELDKKRQLANEKSLVDYRFWGGLVPGNIDHLQDLHDGGVIGFKAFMSECGTDDFQFSHDETLLKGMKKIAALGSILAVHAESNEMVNALTTIAIEEQRLTVKDYSEARPIVSELEAVERILRFAQLTCCPIHICHVSSRKVLKRIKQAKGEGVNVSVETCPHYLLFSLDEFAEIGYLAKCAPPLRERQEVEDLWDGLMAGEIDLISSDHSPSLPQMKTGKTIFEVWGGIAGCQNTLAVMLTEGYHKRKMPLTQIVQLLSTEPAKRFGLYPQKGTIQVGAEASFTLIDLNESYTLNASDLYYRHPISPYVGQRFRGKVKHTICQGKHVYQDHEGHHHHHH” the value was “not failed”; for “NGNPIPMGYSQAVENNVQITNFALFSAAAIGVELCLFDEQNQETRLPMVRTENVWHLAVTGVKTGTEYAFRIHGEFANPQKLILDPYAKAVNGKPDLSSEESRSWFLLSDNRDNAHLAPRAVVIS”, “failed”; for “MYSNSKCNKFLMYFIFIIFLFCSCQTFYPKNSPEFSFIENSGKNFVWEKLTEGIFLSHIKYEDYPLIIHAVKIDLTNPKLKIVVTEPALFNSKGMVKRETTLSFARRHNTVIALNAAFFNVISFSFSLRGEPLGIHIDKKINLSKPFPKYGALCFLDDNSAFIIESQNTEDIKADIEYAVSGNRIILKNGKPIITNISKKENSRTCVGLADGGKTLYLFFAEGENKKKSRGITYDQAHFFMKKLGAQDAIHLDGGGSSSLIIKKENSFFVQVPSISHFGLRKVVTNLGFIIED”, “failed”.
As for “MEPCELSANTVIAHPRALTDKMTLIRDAGPSKFQVFPTPISEQGDAYYDAKRQALYDHYHPLEISPVIPIDEKTKLMEEWWGKTHELLIEGGLTYDAIKKSVANSSIAFREGVSELFEFLEKKEIPVLIFSAGLADVIEEVTLKSISLLELLSYFCCLYNEYAFVAYSHSYQVLRQNLDRTFKNVKIVSNRMVFNDDGQLVSFKGKLIHVLNKNEHALDMAAPLHDRLGVDIGEEDEENVNMKERRNVLLMGDHLGDLRMSDGLDYETRISIGFL”, the entry is “failed”.
With “MPECRNCGATLREEYRFCPMCATPQTDEASRRLNQYIEQRATKRQASGGTASSNGAENDGTLRGRLQYAAGYVAIVLGLATVTAVAGVFFLLAGLFLLPPIHGRIESAVGRRLGPAPTAGVAGVLAAFGLVVFVFL”, the protein production entry was “failed”.
